Numbering of substitutions follows the chain as printed.
T1: membrane-anchored cyno Ang2 protein expressed on CHO-K1 cells (cyno, UniProt A0A2K5VNX6 19-496)
T1 chain: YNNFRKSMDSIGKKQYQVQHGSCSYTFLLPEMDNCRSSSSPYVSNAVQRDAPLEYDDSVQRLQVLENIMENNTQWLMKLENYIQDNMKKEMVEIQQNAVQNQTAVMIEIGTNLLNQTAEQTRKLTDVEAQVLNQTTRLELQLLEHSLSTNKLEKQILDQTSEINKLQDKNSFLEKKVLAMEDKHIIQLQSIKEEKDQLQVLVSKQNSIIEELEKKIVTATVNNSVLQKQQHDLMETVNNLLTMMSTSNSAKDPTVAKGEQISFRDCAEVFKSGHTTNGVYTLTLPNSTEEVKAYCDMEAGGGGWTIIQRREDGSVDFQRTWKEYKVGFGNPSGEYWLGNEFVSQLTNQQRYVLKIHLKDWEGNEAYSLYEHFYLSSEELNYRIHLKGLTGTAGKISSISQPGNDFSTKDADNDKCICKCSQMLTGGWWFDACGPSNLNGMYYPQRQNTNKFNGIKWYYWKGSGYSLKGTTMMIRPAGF

T2: membrane-anchored human Ang2 protein expressed on CHO-K1 cells (human, UniProt O15123 19-496)
T2 chain: T1 chain with G258E, V279I, L284F, V291I, A410G, G468A, G477D

T3: mouse Ang2 protein (R&D Systems, 7186-AN-025/CF) (mouse, UniProt O35608 19-496, limits assumed)
T3 construct: Bought recombinant protein
T3 sequence (looked up): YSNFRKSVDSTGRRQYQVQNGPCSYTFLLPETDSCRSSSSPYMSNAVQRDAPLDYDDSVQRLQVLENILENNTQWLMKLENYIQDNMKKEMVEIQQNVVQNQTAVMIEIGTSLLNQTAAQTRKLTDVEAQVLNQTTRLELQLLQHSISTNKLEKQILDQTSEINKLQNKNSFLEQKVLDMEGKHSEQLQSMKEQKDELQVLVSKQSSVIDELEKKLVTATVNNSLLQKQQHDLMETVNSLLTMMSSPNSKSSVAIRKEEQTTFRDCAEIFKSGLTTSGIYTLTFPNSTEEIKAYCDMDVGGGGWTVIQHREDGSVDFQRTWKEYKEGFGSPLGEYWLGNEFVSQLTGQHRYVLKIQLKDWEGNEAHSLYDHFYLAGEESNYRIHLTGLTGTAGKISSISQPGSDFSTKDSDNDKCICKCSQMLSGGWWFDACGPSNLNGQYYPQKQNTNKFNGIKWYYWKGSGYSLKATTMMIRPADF

T4: human Ang2 protein (R&D Systems, 623-AN-01M/CF; 623-AN/CF) (human, UniProt O15123 19-496)
T4 chain: T1 chain with G258E, V279I, L284F, V291I, A410G, G468A, G477D

T5: human Ang2 protein (R&D Systems, 623-AN-01M/CF; 623-AN/CF) (human, UniProt O15123 19-496)
T5 construct: Bought recombinant protein; also called Ang2 proteins; angiopoietin-2
T5 sequence (looked up): T1 chain with G258E, V279I, L284F, V291I, A410G, G468A, G477D

B1: 46H3H3 (antibody, V domains shown)
VH: EVKLVESGGGLVQPGGSRKLSCAASGFTFSDYGMVWVRQAPGKGLEWVAYIGSGRSTIYYADTVKGRFTISRDNPKNTLFLQMSSLRSEDTAMYYCAREDNGYSYAMDYWGQGTSVTVSS
VL: DIQMTQSPASQSASLGESVTITCLASQTIGTWLAWYQQKPGKSPQLLIYAATSLADGVPSRFSGSGSGTKFSFKISSLQAEDFVSYYCQQLYSTPLTFGAGTKLELK
notes: Hybridoma antibody purified with Protein-A beads
B2: 42A2A6 (antibody, V domains shown)
VH: DVQLQESGPGLVKPSQSLSLTCTVTGYSITSDYAWNWIRQFPGNKLEWMGFINYSGTTSYNPSLKSRISLTRDTSKNQFFLQLNSVTTEDTATYYCARWGYSDFLYYFDYWGQGTTLTVSS
VL: QIVLSQSPAILSASPGEKVTMTCRASSSVSYIHWYQQKPGYSPKPWIYATSNLASGVPARFSGGGSGTSYSLTISRVEAEDAATYYCQQWSNNPWTFGGGTKLEIK
notes: as for B1
B3: 46F3H4 (antibody, V domains shown)
VH: EVQLHQSGPELVKPGASVKMSCKASGYTFTNYYIHWVKQSHGKSIEWIGYIYPNNGDTTYNQKFKGKATLTVDKSSSIAYMELRSLTSEDSAVYYCAVVSYSNYVAGAMDYWGQGTSVTVSS
VL: SIVMTQTPKFLLVSAGDRVTITCKASQSVSNDVAWYQQKPGQSPKLLIYFASNRYTGVPDRFTGSGYGTDFTFTISTVQAEDLAVYFCQQDYSSPYTFGGGTKLEIK
notes: as for B1
B4: 5A7B9 (antibody, V domains shown)
VH: QIQLVQSGPELKKPGETVKISCKASGYTFTNYGVNWVKQAPGKGLKWMGWINSYSGVPTYADDFKGRFAFSLETSASTAYLQINNLKNEDTATYFCARGENNYYGGSYDWGQGTTLTVSS
VL: B3 VL with F50Y, Y96L, G100A, I106L
notes: as for B1
B5: 4D8F2 (antibody, V domains shown)
VH: DVQLQESGPGLVKPSQSLSLTCTVTGYSITSDYAWNWIRQFPGNKLEWMGYISYSGSTSYNPSLKSRISITRDTSKNQFFLQLNSVTTEDTATYYCARGVRGDMDYWGQGTSVTVSS
VL: B3 VL with F50Y, Y96F, G100S
notes: as for B1
B6: 53E8B2-VH3-VL2 (antibody, V domains shown)
VH: EVQLVESGGGLVQPGGSLRLSCAASGFTFSDYAMAWVRQAPGKGLEWVATIIYDGSSTYYRDSVKGRFTISRDNAKNSLYLQMNSLRAEDTAVYYCARHGRVFGFGYFDYWGQGTLVTVSS
VL: DIQMTQSPSSVSASVGDRVTITCQASQDIGDWVAWYQQKPGRAPKLLIYGADRLADGVPSRFSGSGSGTDFTLTISSLQPEDFATYYCLQDYSPPFTFGQGTKLEIK
B7: 85E10B9-VH1-VL6 (antibody, V domains shown)
VH: QVQLVQSGAEVKKPGASVKVSCKASGYTFTNHYLHWVRQAPGQGLEWMGWIGPTNGDTSYAQKFKDRVTMTRDTSISTAYMELSRLRSDDTAVYYCAREGYFTNYFDYWGQGTLVTVSS
VL: DIQMTQSPSSLSASVGDRVTITCKASQNVIKYLAWYQQKPGKAPKRLIYNASSLQTGVPSRFSGSGSGTEFTLTISSLQPDDFATYYCLQYNSWWTFGQGTKVEIK
B8: 85E10B9-VH3-VL2 (antibody, V domains shown)
VH: B7 VH with G44R, M70I, I76A, R85S, D89E
VL: B7 VL with M4L, S10F, R46L, D81E, Q99G
B9: 85E10B9-VH3-VL1 (antibody, V domains shown)
VH: B7 VH with G44R, M70I, I76A, R85S, D89E
VL: B7 VL with A43V, R46L, E70D, D81E, F83V, Q99G
notes: Humanized antibody expressed in CHO-3E7; also called humanized 85E10B9 lead

Biological target: T1, membrane-anchored cyno Ang2 protein …
Experiment: FACS

EC50 [nM]	Binder
0.342	B1
3.88	B2
18.8	B3
0.662	B4
2.37	B5

Biological target: T2, membrane-anchored human Ang2 protein …
Experiment: FACS

EC50 [nM]	Binder
0.203	B1
7.84	B2
6.33	B3
0.369	B4
1.69	B5

The binders below were run against T3, mouse Ang2 protein (R&D Systems, …) (assay: indirect ELISA, mouse Ang2 coated at 0.5 µg/ml).
Method: (§1) The antibodies were tested for their binding activities to Ang2 in an indirect ELISA. Briefly, 100 μl of 0.5 μg/ml human or mouse Ang2 proteins (R&D Systems; 623-AN-01M/CF for human Ang2, 7186-AN-025/CF for mouse Ang2) were pre-coated onto ELISA plates overnight at 4° C. On the next day, the plates were incubated with […] diluted primary antibodies, with initial concentration at 1 μg/ml. The plates were added with HRP-conjugated goat anti-mouse IgG (H+L) and then TMB for chromogenic reaction. The antibody-antigen binding curves were generated with optical density readings at 450 nm. Raw data was plotted using GraphPad Prism v6.02 software with four parameters, and best-fit values program was used to analyze the EC₅₀.

Binder	binding result
B1	no binding (tested: initial concentration at 1 µg/ml)
B2	no binding (tested: initial concentration at 1 µg/ml)
B3	no binding (tested: initial concentration at 1 µg/ml)
B4	no binding (tested: initial concentration at 1 µg/ml)
B5	no binding (tested: initial concentration at 1 µg/ml)

Biological target: T4, human Ang2 protein (R&D Systems, …)
Experiment: ELISA

EC50 [ng/mL]	Binder
4.35	B6
7.29	B7
4.52	B8
0.718	B9

What follows are binders tested against T5, human Ang2 protein (R&D Systems, …) (assay: indirect ELISA, human Ang2 coated at 0.5 µg/ml, anti-human IgG-HRP).
Method: The humanized antibodies were tested for their binding activities to human Ang2 in an indirect ELISA. Briefly, 100 μl of 0.5 μg/ml human Ang2 proteins (R&D Systems; 623-AN-01M/CF) were pre-coated onto ELISA plates overnight at 4° C. On the next day, the plates were incubated with 100 μl 3× serially diluted primary antibodies, with initial concentration at 1 μg/ml. The plates were added with HRP-conjugated goat anti-human IgG antibody (Jackson, cat #109-605-098) and then TMB for chromogenic reaction. The antibody-antigen binding curves were generated with optical density readings at 450 nm. Antibody ABA and IgG1 were used as a positive and negative control respectively. Raw data was plotted using GraphPad Prism v6.02 software with four parameters, and best-fit values program was used to analyze the EC₅₀.

binding result	Binder
binds	B9

The binders below were run against T5, human Ang2 protein (R&D Systems, …) (assay: indirect ELISA, human Ang2 coated at 0.5 µg/ml).
Method: as §1

binding result	Binder
binds	B1
binds	B2
binds	B3
binds	B4
binds	B5

Biological target: T4, human Ang2 protein (R&D Systems, …)
Experiment: ELISA
Remark: another data set of the same source

EC50 [ng/mL]	Binder
6.34	B1
9.87	B2
42.4	B3
7.47	B4
7.17	B5
